Residue numbers refer to the chain shown, from its start.
B1: AH01950 (antibody, human IgG1, V domains shown)
VH: QVQLQESGPGLVKPSQTLSLTCTVSGYSITSGYTWHWIRQHPGKGLEWIGYIHYSGSTKYNPSLKSRVTISRDTSKNQFSLKLSSVTAADTAVYYCARNSLFASWGQGTLVTVSS
VL: DIVLTQSPDSLAVSLGERATINCRASESVDTYGDSFMHWFQQKPGQPPKLLIYRASNLESGVPDRFSGSGSGTDFTLTISSLQAEDVAVYYCQQSNEAPYTFGGGTKLEIK
notes: also called mPD-L1Ab-CBM clone AH01950
B2: AH01946 (antibody, human IgG1, V domains shown)
VH: B1 VH with V86M
VL: B1 VL with L82V
notes: also called mPD-L1Ab-CBM clone AH01946
B3: AH01963 (antibody, human IgG1, V domains shown)
VH: B1 VH
VL: B1 VL with F40Y, L82V
notes: also called mPD-L1Ab-CBM clone AH01963
B4: Chimeric antibody (antibody, V domains shown)
VH: DVQLQESGPDLVKPSQSLSLTCTVTGYSITSGYTWHWIRQFPGNKLEWMGYIHYSGSTKYNPSLKSRFSITRDTSKNQFFLQLNSMTAEDTATYYCARNSLFASWGHGTLVTVSA
VL: DIVLTQSPASLAVSLGQRATISCRASESVDTYGDSFMHWFQQKPGQPPKLLIYRASNLESGIPARFSGSGSRTDFTLTINPVEADDVATYYCQQSNEAPYTFGGGTKLEIK
notes: also called mPD-L1Ab-Chim

Experiments:
[1] = target: T1, human PD-L1 on cell surface (human, UniProt Q9NZQ7 19-290); experiment: cell-based or functional assay
T1 sequence (Q9NZQ7 19-290): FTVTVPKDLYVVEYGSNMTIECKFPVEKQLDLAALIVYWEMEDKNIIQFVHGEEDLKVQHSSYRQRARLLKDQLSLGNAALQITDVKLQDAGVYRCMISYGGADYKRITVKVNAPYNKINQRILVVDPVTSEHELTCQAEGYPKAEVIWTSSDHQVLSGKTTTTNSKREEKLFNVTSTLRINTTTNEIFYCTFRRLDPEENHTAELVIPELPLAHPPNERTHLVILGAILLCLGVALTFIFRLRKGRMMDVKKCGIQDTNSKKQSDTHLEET

human PD-L1 protein [2] = target: T2, human PD-L1 protein (human, UniProt Q9NZQ7 19-238, limits assumed); experiment: ELISA on human PD-L1 protein; antibody treated for 20 min at 70 C
T2 sequence (Q9NZQ7 19-238 limits assumed): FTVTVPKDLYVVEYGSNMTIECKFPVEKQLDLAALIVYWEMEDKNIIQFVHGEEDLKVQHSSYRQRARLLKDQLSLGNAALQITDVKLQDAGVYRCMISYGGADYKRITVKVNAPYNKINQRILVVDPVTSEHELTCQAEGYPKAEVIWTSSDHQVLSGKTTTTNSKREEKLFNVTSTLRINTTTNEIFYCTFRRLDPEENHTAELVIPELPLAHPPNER
Procedure: (§1) The antibody samples were treated for 20 min at various temperature gradients respectively, and then centrifuged to remove the pellet. Then the amount of remaining antibody was evaluated by ELISA. (The temperature gradient includes: room temperature, 30° C., 40° C., 50° C., 60° C., 70° C., […]) (FIG. 4)

human PD-L1 protein [3] = target: T2, human PD-L1 protein; experiment: ELISA on human PD-L1 protein; antibody after 14 days at 40 C (D14)
Procedure: (§2) The antibody samples were treated separately at 40° C., and then centrifuged to remove the pellet. Then the amount of remaining antibody was evaluated by ELISA. (test after treatment at 40° C. for 7 days (D7) and 14 days (D14) separately; for each test, the untreated sample (D0) stored at −80° C. is used as a control) (FIG. 3)

[4] = target: T3, PD-L1-HIS recombinant protein (human, UniProt Q9NZQ7 19-238, limits assumed); experiment: SPR (Biacore 8K), antibody captured on chip, PD-L1-HIS analyte 2.5-80 nM, 1:1 binding model
T3 construct: not shown: His tag
T3 sequence (Q9NZQ7 19-238 limits assumed): as above
Procedure: The chip surface was equilibrated with HBS-EP buffer at a flow rate of 10 μl/min for 5 min, and then a 1:1 mixture of “NHS+EDC” was injected at a flow rate of 10 μl/min for 420 sec to activate the chip. The capture antibody (goat anti-murine IgG) diluted in 10 mM sodium acetate buffer was injected for about 420 sec at a flow rate of 10 μl/min for coupling, and finally ethanolamine was injected for 420 sec at a flow rate of 10 μl/min to block the surface.
Three pre-cycles were performed with the HBS-EP buffer as a sample to balance the chip to stabilize the baseline. The antibody diluted in HBS-EP buffer was injected for 30 sec at a flow rate of 10 μl/min (where the antibody-antigen binding signal was controlled to about 100 RU by adjusting the capture time between 0-5 min), and then the chip was equilibrated with the buffer for 1 min. The low-concentration antigen 2.5 nM PD-L1-HIS was injected at a flow rate of 30 μl/min for 240/300 seconds, to allow the antigen to bind to the antibody, and then the buffer was injected at a flow rate of 30 μl/min for 720/600 seconds for dissociation. 50 mM HCl were injected three times each for 15 s at a flow rate of 100 μl/min for regeneration, to complete one cycle. The antigen concentration was changed (such as 5 nM PD-L1-HIS) to carry out the cycle for measurement at a next gradient concentration until all gradient concentrations (2.5 nM, 5 nM, 10 nM, 20 nM, 40 nM, 80 nM PD-L1-HIS) and the replicate (such as 10 nM PD-L1-HIS) were tested.
The experimental data was double subtracted (minus the background values of the control channel and zero concentration), and fitted to the “1:1 binding” model in the Biacore 8K evaluation software. Biacore 8K was used to determine the affinity of the antibody to the PD-L1-HIS recombinant protein.

human PD-L1 protein [5] = target: T2, human PD-L1 protein; experiment: ELISA on human PD-L1 protein; untreated antibody (D0) and antibody after 7 days at 40 C (D7)
Procedure: as §2

human PD-L1 protein [6] = target: T2, human PD-L1 protein; experiment: ELISA on human PD-L1 protein; antibody treated for 20 min (all overlapping curves, including the -80 C control)
Procedure: as §1

human PD-L1 protein [7] = target: T2, human PD-L1 protein; experiment: ELISA on the antigen (human PD-L1); antibody untreated (0), after oxidative stress (AAPH, 24 h) or deamidation stress (pH 9.0, 48 h)
[8] = target: T1, human PD-L1 on cell surface; experiment: flow cytometry on CHO cells expressing human PD-L1, fitted curve
Procedure: (§3) CHO cells expressing human or monkey PD-L1 and parent cells as a negative control were washed 3 times with PBS. 2.5×10⁵ detection cells and 100 μl of 3-fold serial dilutions of purified antibody with an initial concentration of 300 nM were added to a 96-well plate and incubated at 4° C. for 1 hr. […] Finally, the cells were washed 3 times with PBS, and the signal was read on FACS BD Calibur.

[9] = target: T4, monkey PD-L1 on cell surface (monkey); experiment: flow cytometry on CHO cells expressing monkey PD-L1, fitted curve
T4 construct: whole, on cells; also called monkey PD-L1 cell line; CHO cells overexpressing monkey PD-L1
Procedure: as §3
Moreover, CHO cells overexpressing monkey PD-L1 were used to test the cross-recognition binding to monkey PD-L1 by the antibodies.

human PD-L1 protein [10] = target: T2, human PD-L1 protein; experiment: ELISA on human PD-L1 protein; antibody kept at 40 C for 0 (D0), 7 (D7) or 14 (D14) days
Procedure: as §2

biotin-labeled PD-L1-Fc [11] = target: T5, biotin-labeled PD-L1-Fc (human, UniProt Q9NZQ7 19-238, limits assumed, biotin-labeled (sites not given)); experiment: ELISA: biotin-PD-L1-Fc binding to coated human PD-1 with titrated antibody; enhancement of PD-L1/PD-1 binding
T5 construct: not shown: Fc part
T5 sequence (Q9NZQ7 19-238 limits assumed): as above
Procedure: (§4) The ELISA plate (Nunc) was coated with 100 μl/well of 0.5 μg/ml recombinant human PD-1 protein in PBS at 4° C. overnight. The plate was washed with PBS-T (0.05% Tween), and blocked with 200 μl/well of PBST containing 1% BSA at 37° C. for 0.5 hr. Then the blocking buffer was discarded, and 50 μl of 10 μg/ml purified antibody to be tested was added to the first test well. 3-fold serial dilutions were made, and a total of 11 test concentration gradients were given. […] The plate was washed 3 times with PBST, and incubated with 100 μl/well of Streptavidin-HRP (SA-HRP, GenScript) at 37° C. for 10 min. Finally, the plate was washed 5 times with PBST, and then a TMB developing solution (GenScript) was added and incubated at room temperature for 15 min in the dark. The reaction was terminated by adding 50 μl of 1M HCl stop solution (Sigma). The plate was read at 450 nm on a microplate reader.

biotin-labeled PD-L1-Fc [12] = target: T5, biotin-labeled PD-L1-Fc; experiment: ELISA: biotin-PD-L1-Fc binding to coated human PD-1 with titrated antibody, OD 450 nm, fitted curve; enhancement
Procedure: as §4

biotin-labeled PD-L1-Fc [13] = target: T5, biotin-labeled PD-L1-Fc; experiment: flow cytometry: biotin-PD-L1-Fc binding to CHO cells expressing human PD-1 with titrated antibody, fitted curve; enhancement
Procedure: (§5) In the FACS test, CHO cells expressing human PD-1 and parent cells as a negative control were washed 3 times with PBS. 2.5×10⁵ detection cells and 50 μl of 3-fold serial dilutions of purified antibody with an initial concentration of 300 nM were added to a 96-well plate. […] Then the cells were washed 3 times with PBS, 100 μl of iFluor647-labeled streptavidin (1 μg/ml) was added, and the cells were incubated at 4° C. for 45 min. Finally, the cells were washed 3 times with PBS, and the signal was read on FACS BD Calibur.

biotin-labeled PD-L1-Fc [14] = target: T5, biotin-labeled PD-L1-Fc; experiment: flow cytometry: biotin-PD-L1-Fc binding to CHO cells expressing human PD-1 with titrated antibody; enhancement of PD-L1/PD-1 binding
Procedure: as §5

human PD-L1 protein [15] = target: T2, human PD-L1 protein; experiment: ELISA on human PD-L1 protein; antibody treated for 20 min at room temperature to 70 C and -80 C control (curves not told apart)
Procedure: as §1

human PD-L1 protein [16] = target: T2, human PD-L1 protein; experiment: ELISA on the antigen (human PD-L1); antibody untreated (0), after oxidative stress (AAPH, 24 h) or deamidation stress (pH 9.0, 48 h); remark: listed apart in the source
human PD-L1 protein [17] = target: T2, human PD-L1 protein; experiment: ELISA on the antigen (human PD-L1); antibody untreated (0), after oxidative stress (AAPH, 24 h) or deamidation stress (pH 9.0, 48 h); curves not told apart
human PD-L1 protein [18] = target: T2, human PD-L1 protein; experiment: ELISA on human PD-L1 protein; control antibody stored at -80 C
Procedure: as §1

human PD-L1 protein [19] = target: T2, human PD-L1 protein; experiment: ELISA on human PD-L1 protein; antibody treated for 20 min (overlapping curves, room temperature to 60 C by the legend, not told apart)
Procedure: as §1

Row | Binder | Bottom (best-fit value) of IL-2 release, mixed lymphocyte reaction [1] | EC50 (µg/ml) of IL-2 release, mixed lymphocyte reaction [1] | LogEC50 (best-fit value) of IL-2 release, mixed lymphocyte reaction [1] | Span (best-fit value) of IL-2 release, mixed lymphocyte reaction [1] | Top (best-fit value) of IL-2 release, mixed lymphocyte reaction [1] | EC50 (read off the curve) (human PD-L1 protein [3]) | Kd [4] | koff [4] | kon [4] | EC50 (read off the curve) (human PD-L1 protein [5]) | EC50 (read off the curve) (human PD-L1 protein [10]) | EC50 (read off the curve) (human PD-L1 protein [15]) | other results
1 | B1 | 1140 | 0.0311 µg/mL | -1.51 | 950 | 2090 | ~20 ng/mL | 0.82 nM | 0.000152 s⁻¹ | 185000 M⁻¹ s⁻¹ | ~10 ng/mL | – | – | EC50 (read off the curve) (human PD-L1 protein [2]): ~30 ng/mL; EC50 (read off the curve) (human PD-L1 protein [6]): ~10 ng/mL; EC50 (read off the curve) (human PD-L1 protein [7]): ~10 ng/mL
2 | B2 | 1170 | 0.0295 µg/mL | -1.53 | 866 | 2030 | – | 0.835 nM | 0.000155 s⁻¹ | 186000 M⁻¹ s⁻¹ | – | ~10 ng/mL | ~10 ng/mL | EC50 [8]: 0.501 nM; LogEC50 [8]: -0.3; EC50 [9]: 3.29 nM; LogEC50 [9]: 0.518; EC50 (biotin-labeled PD-L1-Fc [11]): 21.9 ng/mL; LogEC50 (biotin-labeled PD-L1-Fc [12]): 1.34; LogEC50 (biotin-labeled PD-L1-Fc [13]): 1.45; EC50 (biotin-labeled PD-L1-Fc [14]): 28.1 nM; EC50 (read off the curve) (human PD-L1 protein [16]): ~10 ng/mL
3 | B3 | 1420 | 0.0406 µg/mL | -1.39 | 930 | 2350 | ~20 ng/mL | 1.27 nM | 0.000274 s⁻¹ | 216000 M⁻¹ s⁻¹ | ~10 ng/mL | – | ~10 ng/mL | EC50 (read off the curve) (human PD-L1 protein [17]): ~20 ng/mL
4 | B4 | – | – | – | – | – | – | 1.27 nM | 0.000219 s⁻¹ | 172000 M⁻¹ s⁻¹ | – | ~10 ng/mL | – | EC50 (read off the curve) (human PD-L1 protein [18]): ~10 ng/mL; EC50 (read off the curve) (human PD-L1 protein [19]): ~8 ng/mL

Reference: patent US20220073618A1 (NANJING GENSCRIPT BIOTECH, published 2022)
